Results as given in PMC11973211, “Mechanistic insights into the structure-based design of a CspZ-targeting Lyme disease vaccine” (Nature Communications, 2025).

Target: T1, human complement factor H (human, UniProt P08603 19-1231)
T1 construct: complement factor H, human; used at 500 nM in the ELISA; also called FH; human FH
Experiment: ELISA; 1 µg histidine-tagged CspZ coated on wells, blocked with 5% BSA in PBS; PBS (control), irrelevant human IgG, #1139c or #1193c (0.4-50 nM) added, then 500 nM human FH; bound FH detected with sheep anti-human FH and donkey anti-sheep HRP
Settings: both partners purified

T1 sequence (P08603 19-1231): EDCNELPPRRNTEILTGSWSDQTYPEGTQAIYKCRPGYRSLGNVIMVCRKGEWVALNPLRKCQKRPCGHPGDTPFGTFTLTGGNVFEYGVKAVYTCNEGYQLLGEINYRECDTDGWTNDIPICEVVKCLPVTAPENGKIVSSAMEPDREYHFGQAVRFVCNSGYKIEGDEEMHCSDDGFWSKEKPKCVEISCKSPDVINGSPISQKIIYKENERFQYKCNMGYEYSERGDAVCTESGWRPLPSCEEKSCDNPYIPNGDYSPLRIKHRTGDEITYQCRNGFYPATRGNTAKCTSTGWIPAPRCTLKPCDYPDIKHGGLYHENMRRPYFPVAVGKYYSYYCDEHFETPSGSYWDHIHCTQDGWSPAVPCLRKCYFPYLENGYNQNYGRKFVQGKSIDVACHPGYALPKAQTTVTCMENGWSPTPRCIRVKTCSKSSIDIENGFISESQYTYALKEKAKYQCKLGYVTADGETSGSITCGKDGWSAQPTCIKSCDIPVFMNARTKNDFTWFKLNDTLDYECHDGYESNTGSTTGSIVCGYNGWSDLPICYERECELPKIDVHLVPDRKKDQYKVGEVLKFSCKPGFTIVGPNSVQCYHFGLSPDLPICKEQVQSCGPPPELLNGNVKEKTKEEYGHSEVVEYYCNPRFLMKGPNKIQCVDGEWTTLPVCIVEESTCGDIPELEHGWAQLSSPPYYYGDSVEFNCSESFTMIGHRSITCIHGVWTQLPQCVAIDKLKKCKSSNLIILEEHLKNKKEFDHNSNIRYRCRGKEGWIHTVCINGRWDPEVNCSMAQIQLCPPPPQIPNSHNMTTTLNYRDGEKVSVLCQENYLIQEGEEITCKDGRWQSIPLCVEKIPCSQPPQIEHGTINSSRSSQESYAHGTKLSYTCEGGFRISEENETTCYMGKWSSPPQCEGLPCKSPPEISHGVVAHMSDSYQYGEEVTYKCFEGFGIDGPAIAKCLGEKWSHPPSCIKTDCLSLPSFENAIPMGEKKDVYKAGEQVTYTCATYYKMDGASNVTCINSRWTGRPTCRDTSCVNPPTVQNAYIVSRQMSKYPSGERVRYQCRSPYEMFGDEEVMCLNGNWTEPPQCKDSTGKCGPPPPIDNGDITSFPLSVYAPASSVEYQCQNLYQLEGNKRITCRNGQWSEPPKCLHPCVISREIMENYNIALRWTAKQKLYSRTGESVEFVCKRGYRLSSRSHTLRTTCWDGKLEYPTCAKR

B1: histidine-tagged CspZ (B. burgdorferi B31 CspZ) (natural protein)
chain: RLNQRNINELKIFVEKAKYYSIKLDAIYNECTGAYNDIMTYSEGTFSDQSKVNQAISIFKKDNKIVNKFKELEKIIEEYKPMFLSKLIDDFAIELDQAVDNDVSNARHVADSYKKLRKSVVLAYIESFDVISSKFVDSKFVEASKKFVNKAKEFVEENDLIALECIVKTIGDMVNDREINSRSRYNNFYKKEADFLGAAVELEGAYKAIKQTLL
notes: CspZ (BbCRASP-2), outer surface protein of Borrelia burgdorferi strain B31; codon-optimised synthetic DNA in pET28a (BamHI/SalI); this is a surmise; also called BbCRASP-2
binding result: binds
